The values that follow come from patent US20040126819A1.

The EC50 (read off the curve) is the concentration giving half of the maximal effect. Broadly, the Kd is the free concentration of one partner at which half of the binding sites on the other are occupied at equilibrium, for simple one-to-one binding. A high value points to lower affinity.

For test [1], the target named is GDNF receptors on E10 embryonic chick sympathetic neurons. In words: steady-state saturation binding of 125I-GDNF to E10 embryonic chick sympathetic neurons, triplicates.
For test [2] the target is unchanged. In words: saturation binding of 125I-GDNF to E10 chick sympathetic neurons, 4 C, filtration.

B1: recombinant rat GDNF produced in Sf21 insect cells using a baculovirus expression system (ligand, UniProt Q07731 78-211, looked up)
chain: SPDKQAAALPRRERNRQAAAASPENSRGKGRRGQRGKNRGCVLTAIHLNVTDLGLGYETKEELIFRYCSGSCEAAETMYDKILKNLSRSRRLTSDKVGQACCRPVAFDDDLSFLDDSLVYHILRKHSAKRCGCI
modifications: labeled with Na-^125I by the chloramine-T method where used as tracer
Regarding B1, the EC50 (read off the curve) in test [1] stood at 0.4 nM. In test [2], this molecule yielded a Kd of 0.4 nM.
